Bounds are passed on as bounds.

Broadly, the Ki is the dissociation constant of the complex between target and ligand, obtained from inhibition or displacement. A low value points to tighter binding.

Test [1] has as its target mu (MOP) (h) (human (printed (h))) (UniProt P35372). Nature of the test: radioligand displacement, reference compound of the panel. On the technique in general: In a radioligand displacement assay an active substance lowers the binding of a labelled ligand.
For test [2], the target named is delta (DOP) (h) (human (printed (h))) (UniProt P41143). Described as above.
The target of test [3] is Acetylcholinesterase (h) (human (printed (h))) (UniProt P22303).
The target in test [4] is COX1(h) (human (printed (h))) (UniProt P23219).
Test [5] deals with T1, COX2(h) (human (printed (h))) (UniProt P35354).
T1 sequence: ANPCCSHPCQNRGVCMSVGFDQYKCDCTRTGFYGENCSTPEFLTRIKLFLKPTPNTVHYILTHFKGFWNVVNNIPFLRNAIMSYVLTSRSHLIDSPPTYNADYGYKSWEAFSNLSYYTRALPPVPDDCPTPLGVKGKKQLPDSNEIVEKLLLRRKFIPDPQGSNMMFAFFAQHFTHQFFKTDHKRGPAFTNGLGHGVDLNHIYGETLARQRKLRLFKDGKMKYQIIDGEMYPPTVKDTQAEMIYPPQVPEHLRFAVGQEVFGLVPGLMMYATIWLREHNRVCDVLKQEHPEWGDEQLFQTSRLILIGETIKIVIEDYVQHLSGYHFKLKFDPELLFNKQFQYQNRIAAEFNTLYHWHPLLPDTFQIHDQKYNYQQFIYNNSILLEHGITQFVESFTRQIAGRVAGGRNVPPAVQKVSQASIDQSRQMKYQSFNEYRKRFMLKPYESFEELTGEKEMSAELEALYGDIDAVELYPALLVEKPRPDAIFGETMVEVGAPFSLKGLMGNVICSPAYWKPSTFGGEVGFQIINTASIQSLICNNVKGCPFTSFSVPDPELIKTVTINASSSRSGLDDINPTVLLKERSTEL

Test [6] deals with Lck kinase (h) (human (printed (h))) (UniProt P06239).
Test [7] has as its target PDE3A (h) (human (printed (h))) (UniProt Q14432).
For test [8], the target named is PDE4D2 (h) (human (printed (h))) (UniProt Q08499).
Test [9] has as its target BZD (central). Nature of the test: radioligand displacement, 10 uM compound.
In test [10] the target is Ca2+ channel (L, dihydropyridine site). Nature of the test: radioligand displacement, 10 uM compound.
The target in test [11] is KV channel. Nature of the test: radioligand displacement, 10 uM compound.
Test [12] concerns the target MAO-A. Kind of test: radioligand displacement, 10 uM compound.
The target in test [13] is NMDA. Kind of test: radioligand displacement, 10 uM compound.
Test [14] deals with Na+ channel (site 2). Nature of the test: radioligand displacement, 10 uM compound.
In test [15] the target is Recombinant human DPP4 (R&D systems, #9168-SE) (human).
The target in test [16] is recombinant human PREP (R&D systems, #4308-SE) (human).
Test [17] concerns the target KV channel. Nature of the test: radioligand displacement, reference compound of the panel.

Sequence of PDE4D2 (h) (human (printed (h))) (Q08499 303-809): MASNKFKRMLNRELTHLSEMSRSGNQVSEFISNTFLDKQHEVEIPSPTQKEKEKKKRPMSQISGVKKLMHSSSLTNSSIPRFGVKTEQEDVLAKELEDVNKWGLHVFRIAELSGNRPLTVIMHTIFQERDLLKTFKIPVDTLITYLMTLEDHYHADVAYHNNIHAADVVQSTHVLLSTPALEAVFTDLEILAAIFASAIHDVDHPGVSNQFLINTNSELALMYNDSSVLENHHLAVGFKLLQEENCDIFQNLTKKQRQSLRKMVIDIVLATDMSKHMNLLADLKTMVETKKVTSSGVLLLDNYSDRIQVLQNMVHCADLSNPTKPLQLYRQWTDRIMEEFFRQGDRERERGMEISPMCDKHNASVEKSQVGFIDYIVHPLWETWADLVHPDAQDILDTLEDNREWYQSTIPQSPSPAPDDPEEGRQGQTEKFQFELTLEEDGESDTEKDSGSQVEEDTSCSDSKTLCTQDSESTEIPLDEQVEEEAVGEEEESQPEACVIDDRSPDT
Sequence of COX1(h) (human (printed (h))) (P23219 24-599 limits assumed): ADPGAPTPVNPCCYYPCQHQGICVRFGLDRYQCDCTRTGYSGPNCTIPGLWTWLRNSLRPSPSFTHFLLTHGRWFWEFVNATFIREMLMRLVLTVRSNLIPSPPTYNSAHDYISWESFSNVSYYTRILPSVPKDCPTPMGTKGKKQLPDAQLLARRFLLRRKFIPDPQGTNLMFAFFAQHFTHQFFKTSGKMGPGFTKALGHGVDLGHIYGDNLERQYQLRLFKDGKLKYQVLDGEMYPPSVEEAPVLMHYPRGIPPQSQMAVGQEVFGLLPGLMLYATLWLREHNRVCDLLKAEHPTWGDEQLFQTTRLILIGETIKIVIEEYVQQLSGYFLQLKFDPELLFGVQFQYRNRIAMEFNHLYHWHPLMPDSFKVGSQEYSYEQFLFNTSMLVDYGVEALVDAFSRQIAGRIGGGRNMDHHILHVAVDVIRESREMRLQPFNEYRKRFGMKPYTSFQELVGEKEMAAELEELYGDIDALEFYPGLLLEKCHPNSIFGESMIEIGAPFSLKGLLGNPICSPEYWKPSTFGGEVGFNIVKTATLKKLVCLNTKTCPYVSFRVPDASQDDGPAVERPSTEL
Sequence of recombinant human PREP (R&D systems, #4308-SE) (human) (chain, as listed by the source limits assumed): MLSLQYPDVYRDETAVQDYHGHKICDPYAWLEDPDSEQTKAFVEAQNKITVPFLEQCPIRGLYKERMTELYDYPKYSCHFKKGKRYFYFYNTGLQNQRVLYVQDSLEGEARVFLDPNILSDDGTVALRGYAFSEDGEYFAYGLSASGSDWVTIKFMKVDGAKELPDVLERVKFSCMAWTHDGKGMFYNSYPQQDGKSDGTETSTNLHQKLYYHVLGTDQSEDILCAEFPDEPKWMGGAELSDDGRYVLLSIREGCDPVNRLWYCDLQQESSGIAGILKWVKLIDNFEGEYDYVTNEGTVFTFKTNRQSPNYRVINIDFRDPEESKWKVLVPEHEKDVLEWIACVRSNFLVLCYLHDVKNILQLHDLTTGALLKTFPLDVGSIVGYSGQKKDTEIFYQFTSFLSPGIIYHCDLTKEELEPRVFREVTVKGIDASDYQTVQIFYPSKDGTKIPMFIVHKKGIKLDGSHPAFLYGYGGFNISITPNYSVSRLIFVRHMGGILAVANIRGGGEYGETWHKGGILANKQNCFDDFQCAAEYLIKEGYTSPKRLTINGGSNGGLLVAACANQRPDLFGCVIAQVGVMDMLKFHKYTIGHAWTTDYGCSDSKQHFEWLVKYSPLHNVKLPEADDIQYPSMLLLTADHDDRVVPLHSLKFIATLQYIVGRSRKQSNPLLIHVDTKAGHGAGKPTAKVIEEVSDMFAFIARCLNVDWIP

With DAMGO (peptide), the Ki in test [1] is 0.37 nM.
For DPDPE (peptide), the Ki in test [2] is 1.2 nM.
For the substance “Hex-[Cys(tMeBn(DOTA-AET))-Pro-Pro-Thr-Gln-Phe-Cys]-OH (3BP-3554) (peptide)”, the % inhibition of control enzyme activity is 1% in [3]; 8% in test [4]; -22% in test [5]; -4% in [6]; -37% in test [7]; -4% in [8]. For the same substance, the % Inhibition of Specific Binding in [9] is 5%; in test [10] it was 54%; in [11] it was 4%; in test [12], -25%; in [13], 1%; in test [14], 14%.
As for “Hex-[Cys(tMeBn(DOTA-PP))-Pro-Pro-Thr-Gln-Phe-Cys]-Asp-NH2 (3BP-3407) (peptide)”, the pIC50 (DPP4) in test [15] was less than 6 pIC50. In [16], the pIC50 (PREP) is less than 6 pIC50. The % inhibition of control enzyme activity in test [3] was -6%; in [4], 10%; in [5], -14%; in test [6], 10%; in [7] it was -3%; in [8] it was -5%. The % Inhibition of Specific Binding is -9% in test [9]; 42% in test [10]; -5% in test [11]; -5% in test [12]; 9% in test [13]; -7% in test [14].
In the case of “alpha-dendrotoxin (from UniProt P00980) (peptide)”, the Ki in test [17] stood at 0.097 nM.

The record behind these values is US20220315554A1, “COMPOUNDS COMPRISING A […] LIGAND AND USE THEREOF” (priority 2019, published 2022).
